T1: mouse Claudin-6 (CLDN6) (mouse, UniProt Q9Z262 1-219)
T1 construct: whole, on cells; GFP fusion on engineered HEK293T cells; also called Mouse CLDN6; murine CLDN6
T1 sequence (looked up): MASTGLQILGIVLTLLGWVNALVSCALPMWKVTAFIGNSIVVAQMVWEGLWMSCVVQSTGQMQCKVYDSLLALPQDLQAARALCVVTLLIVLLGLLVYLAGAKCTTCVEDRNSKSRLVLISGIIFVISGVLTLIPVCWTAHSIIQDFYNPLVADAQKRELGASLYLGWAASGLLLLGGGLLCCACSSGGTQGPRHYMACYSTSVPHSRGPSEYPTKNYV


Tests used:
[1] = biological target: human Claudin-6 (CLDN6) (human) (UniProt P56747); assay: FACS, 0.3 ug Ab, ARK2 cells (2nd Ab only 1351.21)
[2] = biological target: human Claudin-6 (CLDN6) (human) (UniProt P56747); assay: FACS, 1.5 ug Ab, ARK2 cells (2nd Ab only 1351.21)
[3] = biological target: human Claudin-6 (CLDN6) (human) (UniProt P56747); assay: FACS, 1.5 ug Ab, OVCA429 cells (2nd Ab only 885.77)
[4] = biological target: human Claudin-6 (CLDN6) (human) (UniProt P56747); assay: FACS, 0.3 ug Ab, 293T clone expressing human CLDN6 (2nd Ab only 768.07)
[5] = biological target: human Claudin-6 (CLDN6) (human) (UniProt P56747); assay: FACS, 1.5 ug Ab, 293T clone expressing human CLDN6 (2nd Ab only 768.07)
[6] = biological target: T1, mouse Claudin-6 (CLDN6); assay: FACS, 293T clone expressing mouse CLDN6, dose not stated (2nd Ab only 1061.72)
Method: Two doses (1.5 μg or 0.3 μg) of the humanized antibodies were tested for binding to either human CLDN6 or murine CLDN6 which proteins were expressed by engineered 293T clones.

FACS fluorescence [1] | FACS fluorescence [2] | FACS fluorescence [3] | FACS fluorescence [4] | FACS fluorescence [5] | FACS fluorescence [6] | Binder
1140 | 1470 | 1260 | 9500 | 24600 | – | AB9-3 (antibody, V domains shown) VH: QVQLVQSGAEVKKPGASVKMSCKASGYRFTDYNMHWVRQAPGQGLEWIGYINPNNGGTNYAQKFQGRATLTVDTSTSTAYMELSSLRSEDTAVYYCARDYLYFFDCWGQGTLLTVSS VL: DIQMTQSPSSLSASVGDRVTITCLASQTIGTWLAWYQQKPGKAPKLLIYAAASLADGVPSRFSGSGSGTDFTFTISSLQPEDFVTYYCQQLYSIPRTFGQGTKLEIK
4440 | 11200 | 44700 | 79200 | 207000 | 99700 | AB1-7 (antibody, V domains shown, humanized) VH: QVQLVQSGAEVKKPGASVKMSCKASGYTFTTYTMHWVRQAPGQGLEWIGFINPSSGYTDYAQKFQGRVTLTADTSTSTVYMELSSLRSEDTAVYYCANGDYYVAYWGQGTLVTVSS VL: DIQLTQSPSSLSASVGDRVTMTCTASSSVSSTYFHWYQQKPGKAPKLLIYSTSNLASGVPSRFSGSGSGTDYTLTISSMQPEDAATYYCHQYHRSPLTFGQGTKLEIK
7490 | 22400 | 54300 | 138000 | 213000 | 128000 | AB1-5 (antibody, V domains shown, humanized) VH: QVQLVQSGAEVKKPGASVKVSCKASGYTFTTYTMHWVRQAPGQGLEWMGFINPSSGYTDYAQKFQGRVTMTADTSTSTVYMELSSLRSEDTAVYYCANGDYYVAYWGQGTLVTVSS VL: DIQLTQSPSSLSASVGDRVTMTCTASSSVSSTYFHWYQQKPGKAPKLWIYSTSNLASGVPSRFSGSGSGTDYTLTISSMQPEDAATYYCHQYHRSPLTFGQGTKLEIK
5810 | 17600 | 66000 | 98800 | 210000 | 122000 | AB1-8 (antibody, V domains shown, humanized) VH: QVQLVQSGAEVKKPGASVKMSCKASGYTFTTYTMHWVRQAPGQGLEWIGFINPSSGYTDYAQKFQGRVTLTADTSTSTVYMELSSLRSEDTAVYYCANGDYYVAYWGQGTLVTVSS VL: DIQLTQSPSSLSASVGDRVTMTCTASSSVSSTYFHWYQQKPGKAPKLWIYSTSNLASGVPSRFSGSGSGTDYTLTISSMQPEDAATYYCHQYHRSPLTFGQGTKLEIK
3640 | 10000 | 34600 | 102000 | 197000 | 75900 | AB1-4 (antibody, V domains shown, humanized) VH: QVQLVQSGAEVKKPGASVKVSCKASGYTFTTYTMHWVRQAPGQGLEWMGFINPSSGYTDYAQKFQGRVTMTADTSTSTVYMELSSLRSEDTAVYYCANGDYYVAYWGQGTLVTVSS VL: DIQLTQSPSSLSASVGDRVTMTCTASSSVSSTYFHWYQQKPGKAPKLLIYSTSNLASGVPSRFSGSGSGTDYTLTISSMQPEDAATYYCHQYHRSPLTFGQGTKLEIK
2830 | 10800 | 27500 | 142000 | 142000 | 89300 | AB1-3 (antibody, V domains shown, humanized) VH: QVQLVQSGAEVKKPGASVKVSCKASGYTFTTYTMHWVRQAPGQGLEWMGFINPSSGYTDYAQKFQGRVTMTADTSTSTVYMELSSLRSEDTAVYYCANGDYYVAYWGQGTLVTVSS VL: DIQMTQSPSSLSASVGDRVTITCTASSSVSSTYFHWYQQKPGKAPKLLIYSTSNLASGVPSRFSGSGSGTDYTLTISSLQPEDFATYYCHQYHRSPLTFGQGTKLEIK
3440 | 9150 | 25500 | 73800 | 135000 | – | AB18-chim (antibody, V domains shown) VH: QVQLKQSGPELEKPGASVKISCKASGYSFTGYNMNWVKQSNGKSLEWIGNIDPYYGGSTYNQKFTGKATLTVDKSSSTAYMQLKSLTSEDSAVYYCARERSGYVFSAMDYWGQGTSVTVSS VL: NIMMTQSPSSLAVSAGEKVTMSCKSSQSVLFSSNQKNYLAWYQQKPGQSPRLLIYWASTRESGVPDRFTGSGSGTDFTLTISNVQAEDLAVYYCHQYLSSRTFGAGTKLELK
3510 | 4490 | 3570 | 46700 | 72000 | – | AB9-chim (antibody, V domains shown) VH: EVQLQQSGPELVKPGASVKMSCKASGYRFTDYNMHWVKQSHGKSLEWIGYINPNNGGTNYNQNFKGKATLTVNKSSSTAYMELRSLTSEDSAAYYCARDYLYFFDCWGQGTTLTVSS VL: DIQMTQSPASQSASLGESVTITCLASQTIGTWLAWYQQKPGKSPQLLIYAAASLADGVPSRFSGSGSGTRFSFKISSLQAEDFVSYYCQQLYSIPRTFGGGTKLEIK
1160 | 54900 | 88700 | 251000 | 340000 | 23000 | AB3-3 (antibody, V domains shown, humanized) VH: EVQLLESGGGLVQPGGSMRLSCAASGFTFSNYWMNWVRQAPGKGLEWVAQIRLKSDNYATHYADSVKGRFTISRDDSKNTVYLQMNSLRAEDTGVYYCNDGPPSGCWGQGTLLTVSS VL: DIQMTQSPSSLSASVGDRVTITCRISENIYSYLAWYQQKPGKAPKLLVYNAKILVEGVPSRFSGSGSGTDFTLTISSLQPEDFGTYYCQHHYTVPWTFGQGTKLEIK
1280 | 2910 | 2950 | 13300 | 48600 | 783 | AB3-5 (antibody, V domains shown, humanized) VH: EVQLLESGGGLVQPGGSMRLSCAASGFTFSNYWMNWVRQAPGKGLEWVAQIRLKSDNYATHYADSVKGRFTISRDDSKNTVYLQMNSLRAEDTGVYYCNDGPPSGYWGQGTLLTVSS VL: DIQMTQSPSSLSASVGDRVTITCRISENIYSYLAWYQQKPGKAPKLLVYNAKILVEGVPSRFSGSGSGTDFTLTISSLQPEDFGTYYCQHHYTVPWTFGQGTKLEIK
1320 | 1460 | 2960 | 11600 | 55800 | 1520 | AB3-4 (antibody, V domains shown, humanized) VH: EVQLLESGGGLVQPGGSMRLSCAASGFTFSNYWMNWVRQAPGKGLEWVAQIRLKSDNYATHYADSVKGRFTISRDDSKNTVYLQMNSLRAEDTGVYYCNDGPPSGYWGQGTLLTVSS VL: DIQMTQSPSSLSASVGDRVTITCRISENIYSYLAWYQQKPGKAPKLLIYNAKILVEGVPSRFSGSGSGTDFTLTISSLQPEDFATYYCQHHYTVPWTFGQGTKLEIK
14700 | 33600 | 85900 | 309000 | 396000 | 31700 | AB3-2 (antibody, V domains shown, humanized) VH: EVQLLESGGGLVQPGGSMRLSCAASGFTFSNYWMNWVRQAPGKGLEWVAQIRLKSDNYATHYADSVKGRFTISRDDSKNTVYLQMNSLRAEDTGVYYCNDGPPSGCWGQGTLLTVSS VL: DIQMTQSPSSLSASVGDRVTITCRISENIYSYLAWYQQKPGKAPKLLIYNAKILVEGVPSRFSGSGSGTDFTLTISSLQPEDFATYYCQHHYTVPWTFGQGTKLEIK
1130 | 1380 | 3220 | 32400 | 54400 | – | AB18-4 (antibody, V domains shown) VH: QVQLVQSGAEVKKPGASVKVSCKASGYSFTGYNMNWVRQAPGQGLEWMGNIDPYYGGSTYAQKFQGRVTMTVDTSTSTVYMELSSLRSEDTAVYYCARERSGYVFSAMDYWGQGTLVTVSS VL: DIVMTQSPDSLAVSLGERVTMNCKSSQSVLFSSNQKNYLAWYQQKPGQPPKLLIYWASTRESGVPDRFSGSGSGTDFTLTISSVQAEDVAVYYCHQYLSSRTFGQGTKLEIK
1390 | 1940 | 6750 | 26900 | 58500 | – | AB18-6 (antibody, V domains shown) VH: QVQLVQSGAEVKKPGASVKISCKASGYSFTGYNMNWVRQAPGQGLEWIGNIDPYYGGSTYAQKFQGRATLTVDTSTSTAYMELSSLRSEDTAVYYCARERSGYVFSAMDYWGQGTLVTVSS VL: DIVMTQSPDSLAVSLGERVTMNCKSSQSVLFSSNQKNYLAWYQQKPGQPPKLLIYWASTRESGVPDRFSGSGSGTDFTLTISSVQAEDVAVYYCHQYLSSRTFGQGTKLEIK
58800 | 51900 | 177000 | 312000 | 364000 | 514000 | AB1-Chim (antibody, V domains shown) VH: QVQLQQSAAELARPGASVKMSCKASGYTFTTYTMHWVKQRPGQGLEWIGFINPSSGYTDYNQKFKDRTTLTADKSSSTVYMQLSSLTSEDSAVYYCANGDYYVAYWGQGTLVTVSA VL: QIVLTQSPAIMSASLGERVTMTCTASSSVSSTYFHWYQQKPGSSPKLWIYSTSNLASGVPRRFSGSASGTSYSLTISSMEAEDAATYYCHQYHRSPLTFGAGTKLELK

Reference: US20230049752A1 (University of California, published 2023)
